Experimental data from the Human Domainome abundance scans (Beltran et al. 2025).

B1: Triacylglycerol hydrolase DDHD2, residues 389 to 447; numbered along this chain, O94830 (parent)
chain: TLEEDLKKLQLSEFFDIFEKEKVDKEALALCTDRDLQEIGIPLGPRKKILNYFSTRKNS

Variants of: B1
Assay: abundance fitness (aPCA) (normalised: wild type 0, dead -1); higher = more abundant; growth selection in yeast, the domain comes from the species named
Settings: Homo sapiens

Abundance fitness: each site, then its substitutions
F14: G -0.775, H -0.599, I -0.365, L 0, M -0.015, N -0.193, P -0.581, Q -0.205, R -0.671, S -0.511, T -0.521, V -0.505, W -0.179, Y -0.506
F15: A -0.005, C -0.035, D -0.465, E -0.029, G 0.007, H -0.084, I -0.513, K 0.068, L 0.02, M -0.175, N 0.05, P -0.537, Q -0.103, R -0.077, S 0.088, T 0.112, V -0.097, W -0.311, Y -0.114
D16: A 0.026, C -0.084, E 0.075, F 0.015, G -0.088, H -0.033, I -0.156, K 0.089, L -0.33, M -0.228, N -0.025, P -0.145, Q 0.106, R 0.049, S -0.057, T -0.019, V -0.096, W -0.036, Y -0.435
I17: V 0.128
F18: A -0.134, D -0.399, E -0.508, G -0.644, H -0.533, I -0.16, K -0.081, M -0.225, N -0.197, P -0.035, Q -0.31, R -0.685, S -0.445, T -0.759, V -0.45, W -0.535, Y -0.293
E19: A -0.225, C -0.161, D 0.129, F -0.082, G -0.359, H -0.024, I 0.007, L 0.054, M 0.016, N -0.187, P -0.857, R -0.007, S -0.054, T 0.023, V 0.049, W -0.463, Y -0.255
K20: A 0.07, C -0.538, D -0.126, F -0.524, G -0.26, H -0.212, I -0.321, L -0.386, M 0.081, N -0.142, P -0.591, Q -0.317, S -0.332, T -0.104, V -0.432, W -0.536, Y -0.324
E21: A 0.599, C 0.257, D -0.275, F 0.616, H 0.155, I 0.245, K 0.809, L 0.45, M 0.86, N 0.428, P -0.27, Q 0.137, R 0.508, S 0.453, T 0.212, V 0.029, W 0.299, Y 0.385
K22: A -0.039, C -0.083, D 0.194, E 0.141, F 0.002, G 0.455, H 0.076, I -0.479, L -0.172, M -0.103, N 0.381, Q -0.247, R -0.193, S 0.107, T -0.16, W -0.729, Y 0.089
V23: A -0.339, C -0.47, D -0.177, E -0.434, F 0.437, G -0.426, H -0.376, I 0.417, K 0.101, L 0.354, M 0.773, N -0.414, P -0.374, Q -0.331, R -0.311, S -0.391, T -0.231, W 0.593, Y 0.451
D24: A 0.026, C -0.087, E -0.023, F -0.033, H -0.587, I -1.2, K -0.115, L -0.881, M -0.286
